From article PMC3087007 (The Journal of Cell Biology, 2011) come the findings set out here.

This experiment has as its target T1, GST-occludin 383–522 S408A (human, UniProt Q16625 383-522, S408A).
T1 sequence: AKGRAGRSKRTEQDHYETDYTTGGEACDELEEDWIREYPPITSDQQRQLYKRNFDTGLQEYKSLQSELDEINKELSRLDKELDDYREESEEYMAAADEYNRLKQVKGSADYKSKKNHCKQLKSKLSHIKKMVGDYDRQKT
The experiment in a line: pull-down.

B1: VSV G epitope-tagged human ZO-1 U5-GuK domain construct (residues 591–754) (domain or fragment)
chain: PKTAGGDRADFWRFRGLRSSKRNLRKSREDLSAQPVQTKFPAYERVVLREAGFLRPVTIFGPIADVAREKLAREEPDIYQIAKSEPRDAGTDQRSSGIIRLHTIKQIIDQDKHALLDVTPNAVDRLNYAQWYPIVVFLNPDSKQGVKTMRMRLCPESRKSARKL
Regarding B1, the “fold binding relative to the S408D mutant” value was 3.2 fold.
